Laboratory results taken from paper PMC3167627.

Biological target: Mcm2EE-7 S164E;S170E (Saccharomyces cerevisiae) (UniProt P29469+P24279+P30665+P29496+P53091+P38132)
Test: gel filtration

Substance: M13mp19 circular ssDNA
- binding signal (fold bound vs Mcm2WT-7 at 0.5 nM ssDNA): > 3
